# From IntAct's records for PubMed 18940611
# B1: Programmed cell death 6-interacting protein (Homo sapiens), Q8WUM4 (parent)
# chain: MATFISVQLKKTSEVDLAKPLVKFIQQTYPSGGEEQAQYCRAAEELSKLRRAAVGRPLDKHEGALETLLRYYDQICSIEPKFPFSENQICLTFTWKDAFDKGSLFGGSVKLALASLGYEKSCVLFNCAALASQIAAEQNLDNDEGLKIAAKHYQFASGAFLHIKETVLSALSREPTVDISPDTVGTLSLIMLAQAQEVFFLKATRDKMKDAIIAKLANQAADYFGDAFKQCQYKDTLPKEVFPVLAAKHCIMQANAEYHQSILAKQQKKFGEEIARLQHAAELIKTVASRYDEYVNVKDFSDKINRALAAAKKDNDFIYHDRVPDLKDLDPIGKATLVKSTPVNVPISQKFTDLFEKMVPVSVQQSLAAYNQRKADLVNRSIAQMREATTLANGVLASLNLPAAIEDVSGDTVPQSILTKSRSVIEQGGIQTVDQLIKELPELLQRNREILDESLRLLDEEEATDNDLRAKFKERWQRTPSNELYKPLRAEGTNFRTVLDKAVQADGQVKECYQSHRDTIVLLCKPEPELNAAIPSANPAKTMQGSEVVNVLKSLLSNLDEVKKEREGLENDLKSVNFDMTSKFLTALAQDGVINEEALSVTELDRVYGGLTTKVQESLKKQEGLLKNIQVSHQEFSKMKQSNNEANLREEVLKNLATAYDNFVELVANLKEGTKFYNELTEILVRFQNKCSDIVFARKTERDELLKDLQQSIAREPSAPSIPTPAYQSSPAGGHAPTPPTPAPRTMPPTKPQPPARPPPPVLPANRAPSATAPSPVGAGTAAPAPSQTPGSAPPPQAQGPPYPTYPGYPGYCQMPMPMGYNPYAYGQYNMPYPPVYHQSPGQAPYPGPQQPSYPFPQPPQQSYYPQQ
# B2: Programmed cell death protein 6 (Homo sapiens), O75340 (parent)
# chain: MAAYSYRPGPGAGPGPAAGAALPDQSFLWNVFQRVDKDRSGVISDTELQQALSNGTWTPFNPVTVRSIISMFDRENKAGVNFSEFTGVWKYITDWQNVFRTYDRDNSGMIDKNELKQALSGFGYRLSDQFHDILIRKFDRQGRGQIAFDDFIQGCIVLQRLTDIFRRYDTDQDGWIQVSYEQYLSMVFSIV
# B3: Programmed cell death 6-interacting protein (Homo sapiens), Q8WUM4 (parent)
# chain: B1 chain
# partner: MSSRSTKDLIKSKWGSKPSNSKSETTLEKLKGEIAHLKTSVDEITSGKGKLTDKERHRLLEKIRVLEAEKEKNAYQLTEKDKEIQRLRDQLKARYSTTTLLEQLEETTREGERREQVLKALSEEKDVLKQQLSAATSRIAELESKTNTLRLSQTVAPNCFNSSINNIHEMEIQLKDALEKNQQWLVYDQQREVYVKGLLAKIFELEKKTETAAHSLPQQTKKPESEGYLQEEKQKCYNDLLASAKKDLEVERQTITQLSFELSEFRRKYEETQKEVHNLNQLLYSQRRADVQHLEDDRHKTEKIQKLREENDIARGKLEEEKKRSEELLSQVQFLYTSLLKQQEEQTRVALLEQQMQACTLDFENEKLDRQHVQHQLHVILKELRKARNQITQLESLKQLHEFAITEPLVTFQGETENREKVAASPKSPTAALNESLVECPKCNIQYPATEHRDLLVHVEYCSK
# Variants of: B1
# Conditions: with pdcd6_human PDCD6, O75340
row,Variant,effect of a mutation on the interaction
1,P804A,disrupting interaction
2,P802A,disrupting interaction
3,Y803A,disrupting interaction

# Variants of: B1
# Conditions: with pdcd6_human PDCD6, O75340
# Remark: another data set of the same source
row,Variant,effect of a mutation on the interaction
1,P804A,decreasing interaction
2,P802A,decreasing interaction
3,Y803A,decreasing interaction

# Variants of: B2
# Conditions: with pdc6i_human PDCD6IP
row,Variant,effect of a mutation on the interaction
1,Y124A,disrupting interaction
2,D169A,disrupting interaction
3,Y91A,disrupting interaction
4,Y180A,disrupting interaction
5,W95A,disrupting interaction
6,R125A,disrupting interaction

# Variants of: B3
# Conditions: with cep55_human CEP55, Q53EZ4
row,Variant,effect of a mutation on the interaction
1,P802A,disrupting interaction
